Laboratory results: patent publication US7521540B2, “CYR61 compositions and methods” (Munin Corporation, priority 1996, dated 2009)

Legend:
[1] = test system: NIH 3T3 cells; test: Fibroblast chemotaxis, modified Boyden chamber; format: cell-based, mouse
Text: Cyr61 also affects chondrocytes, e.g., […] involved in skeletal development. In particular, Cyr61 influences the development, and perhaps maintenance, of cartilage, in contrast to the variety of growth-related proteins that exclusively influence development and maintenance of the bony skeleton. The chemotactic response of NIH 3T3 cells to murine Cyr61 was examined using a modified Boyden chamber (Neuroprobe Inc., catalog no. AP48). Grotendorst, Meth. Enzymol. 147:144-152 (1987). Purified Cyr61 protein was serially diluted in DMEM containing bovine serum albumin (BSA; 0.2 mg/ml) and added to the lower well of the chamber. The lower well was then covered with a collagen-coated polycarbonate filter (8 μm pore diameter; Nucleopore Corp., Pleasanton, Calif.). Cells (6×10^4) were then loaded into the upper well. After 5 hours incubation (10% CO2, 37° C.), the filter was removed and the cells were fixed and stained using Wright-Giemsa stain (Harleco formulation; EM Diagnostic Systems, Gibbstown, N.J.). Cells from the upper surface of the filter were then removed by wiping with a tissue swab. The chemotactic response was determined by counting the total number of migrating cells detected in ten randomly selected high-power microscopic fields (400-fold magnification) on the lower surface of the filter. Duplicate trials were performed for each experiment and the experiment was repeated three times to ensure reproducibility of the data.

[2] = Sensitivity of Cyr61 cell-attachment activity to DTT, heat, acid and protease; format: physicochemical
Protocol: Because murine Cyr61 contains 38 cysteines in the 355 amino acid secreted portion, the contribution of disulfide bond formation to Cyr61 tertiary structure was investigated. […] However, Cyr61 was inactivated by heating at 75° C. for 5 minutes, by incubation in 100 mM HCl, or upon extensive digestion with chymotrypsin. […] In addition, Cyr61 is neither phosphorylated nor glycosylated.
Another embodiment of the invention is directed to the use of Cyr61 to mediate cellular attachment to the extracellular matrix. Induction of cellular adhesion was investigated using murine Cyr61, fibronectin, and bovine serum albumin (BSA). Immunological 96-well plates (Falcon brand) were coated with 50 μl of 0.1% BSA in PBS at 4° C. in the presence of 0-30 μg/ml concentrations of murine Cyr61 or fibronectin. After two hours exposure to the coating solution, non-diluted immune or pre-immune antisera (30 μl/well), or affinity-purified anti-Cyr61 antibodies were added. For some wells, the coating mixture was adjusted to 10 mM DTT or 100 mM HCl. After 16 hours incubation, the coating solution was removed and the well surface was blocked with 1% BSA in phosphate-buffered saline (PBS) for 1 hour at room temperature. HUVE cells were plated in Ham's complete F12K medium [GIBCO-BRL, Inc.; Ham, Proc. Natl. Acacd. Sci. (USA) 53:786 (1965)] at 5×10^3-10^4 cells/well. Cycloheximide was added to 100 μg/ml immediately before plating and monensin was added to 1 μM 14 hours before plating. After a 2-hour incubation at 37° C., the wells were washed with PBS and attached cells were fixed and stained with methylene blue. The attachment efficiency was determined by quantitative dye extraction and measurement of the extract absorbance at 650 nm. Oliver et al., J. Cell. Sci. 92:513-518 (1989).

[3] = test system: primary human foreskin fibroblasts; test: Cyr61-regulated gene expression (multi-gene blot, Northern); format: cell-based
Protocol: Purified, soluble, recombinant Cyr61 protein was added to cultures of primary human foreskin fibroblasts for 24 hours. From these cells, mRNA was isolated for preparation of probes to hybridize to a multi-gene blot (Clontech Atlas Human Array 1.2 cat no. 7850-1) containing about 650 genes. The levels of expression of these genes in Cyr61-treated cells were compared to that of control cells. […] These findings have been confirmed by Northern blot analysis showing increases or decreases of the mRNAs in question in Cyr61-treated cells. A time course of expression changes has been established. In particular, by 6 hours after its addition, Cyr61 has induced expression of VEGF-A mRNA and the induction is still evident at 12 and 24 hours post-addition. Also at 12 and 24 hours post-addition, Cyr61 has induced expression of VEGF-A polypeptide. With respect to VEGF-C, induction of mRNA is clearly evident 12 hours after addition of Cyr61 and the induction persists at least through 24 hours post-addition. Cyr61 is expected to induce the expression of VEGF-C polypeptide with similar kinetics.

B1: Cyr61: Cysteine-rich ECM signaling protein; murine sequence SEQ ID NO:2, recombinant from Baculovirus-infected Sf9 cells (protein, listed as Mus musculus)
chain: MSSSTFRTLAVAVTLLHLTRLALSTCPAACHCPLEAPKCAPGVGLVRDGCGCCKVCAKQLNEDCSKTQPCDHTKGLECNFGASSTALKGICRAQSEGRPCEYNSRIYQNGESFQPNCKHQCTCIDGAVGCIPLCPQELSLPNLGCPNPRLVKVSGQCCEEWVCDEDSIKDSLDDQDDLLGLDASEVELTRNNELIAIGKGSSLKRLPVFGTEPRVLFNPLHAHGQKCIVQTTSWSQCSKSCGTGISTRVTNDNPECRLVKETRICEVRPCGQPVYSSLKKGKKCSKTKKSPEPVRFTYAGCSSVKKYRPKYCGSCVDGRCCTPLQTRTVKMRFRCEDGEMFSKNVMMIQSCKCNYNCPHPNEASFRLYSLFNDIHKFRD
optimal concentration for the chemotactic activity [1]: 1 to 5 µg/mL | migrating cells per high-power field ([1]; 0.5 μg/ml): about 5.2 cells | average number of migrating cells detected per field ([1]; 1 μg/ml): 7.5 cells | average number of migrating cells detected per field ([1]; 5 μg/ml): 18.5 cells | average number of migrating cells detected per field ([1]; 10 μg/ml): 18.7 cells | ability to mediate cell attachment after treatment ([2]; 10 mM dithiothreitol (DTT), 16 hours): did not affect the ability of Cyr61 to mediate cell attachment | activity after heating ([2]; 75° C. for 5 minutes): inactivated | activity after protease ([2]; extensive digestion with chymotrypsin): inactivated | activity after acid ([2]; incubation in 100 mM HCl): inactivated | time after addition at which VEGF-A mRNA is induced [3]: ≤ 6 h | time after addition at which VEGF-C mRNA induction is clearly evident [3]: 12 h | expression of angiogenic molecules ([3]; soluble Cyr61, 24 hours): induction of the angiogenic molecules VEGF1 and VEGF3 | expression of inflammation-related cytokines ([3]; soluble Cyr61, 24 hours): induction of the inflammation-related cytokines IL-1 and IL-6 | expression of matrix degrading enzymes ([3]; soluble Cyr61, 24 hours): upregulation of matrix degrading enzymes including MMP1, MMP3, and uPA | expression of matrix protein genes ([3]; soluble Cyr61, 24 hours): downregulation of matrix protein genes such as the type I collagen chain gene
